In US20220064272A1 (TAUC3 BIOLOGICS, published 2022):
Residue numbers refer to the chain shown, from its start. Several values for one entry are separate records, joined by “and”; a condition that tells them apart may be missing. Equal values may be shown once.

Tests used:
[1] = target: T1, TauC3 (C-terminally truncated tau fragment ending at aspartate 421 of htau40) (human, UniProt P10636 1-738); test: binding ELISA on coated TauC3, OD650
T1 construct: Generated and purified by Genscript; also called Human TauC3; recombinant TauC3 protein
In short: (§1)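 Binding was measured by ELISA, with absorbance read at 650 nm, on coated TauC3 antigen that Genscript made and purified. ExpiCHO cells were used to express the chimeric or humanized IgG4κ antibodies. EC50 was obtained from the antibody concentration-response.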

[2] = target: T1, TauC3 (C-terminally truncated tau …); test: binding ELISA on coated TauC3, OD650; remark: listed apart in the source
In short: as §1

[3] = target: T1, TauC3 (C-terminally truncated tau …); test: binding ELISA on coated TauC3, OD650; remark: listed apart in the source
In short: as §1

[4] = target: T1, TauC3 (C-terminally truncated tau …); test: binding ELISA, TauC3 coated
In short: as §1

[5] = target: T1, TauC3 (C-terminally truncated tau …); test: binding ELISA on coated TauC3, OD650; remark: listed apart in the source
In short: as §1

[6] = target: T1, TauC3 (C-terminally truncated tau …); test: binding ELISA on coated TauC3, OD650; remark: listed apart in the source
In short: as §1

[7] = target: T1, TauC3 (C-terminally truncated tau …); test: binding ELISA on coated TauC3, OD650; remark: listed apart in the source
In short: as §1

[8] = target: T1, TauC3 (C-terminally truncated tau …); test: binding ELISA, TauC3 coated; FIG. 16 ELISA
In short: as §1

[9] = target: T1, TauC3 (C-terminally truncated tau …); test: binding ELISA on coated TauC3, OD650; remark: listed apart in the source
In short: as §1

[10] = target: T1, TauC3 (C-terminally truncated tau …); test: binding ELISA on coated TauC3, OD650; left table (HC variants)
In short: as §1

[11] = target: T1, TauC3 (C-terminally truncated tau …); test: binding ELISA on coated TauC3, OD650; remark: listed apart in the source
In short: as §1

[12] = target: T1, TauC3 (C-terminally truncated tau …); test: Biacore kinetics, TauC3 amine-coupled on CM5, antibody series, 1:1 global fit
Text: To determine the affinity of the binding interactions, a biacore kinetic assay was developed which involved immobilizing TauC3 on a CM5 chip via amine coupling and injecting a concentration series of the respective antibody over it.

[13] = target: T1, TauC3 (C-terminally truncated tau …); test: binding ELISA on TauC3 after 21 days at 37 C in PBS or mouse, human, cynomolgus serum, with non-incubated control
Procedure: Purified samples of the chimeric and humanized antibodies were incubated in mouse, human and cynomolgus serum for 21 days. The binding of the Tau01 HMKE, HMKM, HMKN, HMKO, HMKP candidate antibodies which had been incubated in the 3 different serums were compared with an antibody incubated in PBS and a 4° C. positive control sample by binding ELISA to TauC3 (FIG. 37). The Tau01 HMKE, HMKM, HMKN, HMKO, HMKP candidate antibodies retained their binding capability after being incubated in mouse, human and cynomolgus serum.

[14] = target: T1, TauC3 (C-terminally truncated tau …); test: Biacore off-rate ranking, TauC3 amine-coupled on CM5, one antibody concentration; two-phase decay fit, slow phase; parameters: unit not given here
Procedure: (§2) To further evaluate the binding data observed on the Octet, an off-rate ranking experiment was performed on the Biacore 200 instrument. Biacore offers greater selectivity than the Octet and facilitated the immobilization of TauC3 onto a CM5 chip via amine coupling which stabilizes the antigen. This produces higher quality data with stable baselines and good reproducible responses. Once TauC3 is immobilized, one concentration (5 nM) of antibody is added, followed by a dissociation and regeneration step (Section 8.20). The off-rates were fitted using a two-phase decay model (FIG. 25B) or a one phase decay fitting only the second off-rate (FIG. 25A). The candidates were then ranked based on the off-rates obtained using the fits and compared. The data agreed with the Octet results (albeit with a different ranking order), highlighting Tau01 HMKM, HMKO, HMKP, HMKN and HMKE as the humanized variants with the slowest off-rates. The lack of binding of FL Tau to chimeric and a humanized candidate was also confirmed by Biacore by loading the antibody onto a Protein G chip and adding 250 nM FL Tau.

[15] = target: T1, TauC3 (C-terminally truncated tau …); test: binding ELISA on coated TauC3, OD650; right table (HM variants)
In short: as §1

[16] = target: T2, full length Tau (2N4R, htau40) (human, UniProt P10636 1-758); test: Octet, antibody on Protein G sensor, FL Tau in solution
T2 construct: Generated and purified by Genscript; also called FL Tau; FLT
In short: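 Antibody loaded on Protein G biosensors was tested by Bio-Layer Interferometry (OctetRed96) for binding to purified full-length tau in solution. The tau was made and purified by Genscript. Full-length tau was applied at 500 nM. The result is the binding signal response in nm.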

[17] = target: T1, TauC3 (C-terminally truncated tau …); test: Biacore off-rate ranking, TauC3 amine-coupled on CM5, one antibody concentration; one-phase exponential decay fit
Procedure: as §2

[18] = target: T1, TauC3 (C-terminally truncated tau …); test: SPR (Biacore) kinetics, TauC3 amine-coupled on CM5, 1:1 global fit
In short: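 Surface plasmon resonance (Biacore) was used with purified TauC3 immobilised on a CM5 chip by amine coupling. A concentration series of each purified antibody was injected over the chip. Association rate, dissociation rate and Kd were obtained by a 1:1 global fit.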

T1 sequence (P10636 other isoform, or with tags, fused parts or gaps): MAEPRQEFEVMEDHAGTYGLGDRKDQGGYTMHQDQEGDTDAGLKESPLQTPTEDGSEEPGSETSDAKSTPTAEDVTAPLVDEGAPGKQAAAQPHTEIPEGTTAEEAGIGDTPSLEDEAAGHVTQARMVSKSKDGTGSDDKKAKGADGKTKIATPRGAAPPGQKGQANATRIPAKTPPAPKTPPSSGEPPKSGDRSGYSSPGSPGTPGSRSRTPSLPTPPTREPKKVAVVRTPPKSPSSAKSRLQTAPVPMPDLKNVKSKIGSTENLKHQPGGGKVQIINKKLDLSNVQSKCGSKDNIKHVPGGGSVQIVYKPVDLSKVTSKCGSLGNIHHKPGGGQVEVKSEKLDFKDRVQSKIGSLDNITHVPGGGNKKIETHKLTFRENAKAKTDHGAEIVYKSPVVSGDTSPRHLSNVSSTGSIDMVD
T2 sequence (P10636 other isoform, or with tags, fused parts or gaps limits assumed): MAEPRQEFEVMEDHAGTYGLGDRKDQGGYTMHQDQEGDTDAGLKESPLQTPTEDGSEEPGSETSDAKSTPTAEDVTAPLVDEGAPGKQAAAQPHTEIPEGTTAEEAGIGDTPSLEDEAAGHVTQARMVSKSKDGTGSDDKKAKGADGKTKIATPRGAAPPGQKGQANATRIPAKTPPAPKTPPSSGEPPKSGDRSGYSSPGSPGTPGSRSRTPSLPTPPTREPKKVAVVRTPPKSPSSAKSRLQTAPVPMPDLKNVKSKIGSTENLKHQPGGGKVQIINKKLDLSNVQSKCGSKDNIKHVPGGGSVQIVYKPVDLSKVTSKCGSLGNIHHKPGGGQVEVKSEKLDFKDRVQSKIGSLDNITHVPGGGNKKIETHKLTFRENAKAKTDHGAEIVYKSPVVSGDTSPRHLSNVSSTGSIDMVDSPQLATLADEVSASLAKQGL

B1: Tau01 HBKA (antibody, V domains shown)
VH: EVQVVESGGGLVQPGGSLKLSCAASGFTFNTYAMNWVRQASGKGLEWVARIRSKSNNYATYYADSVKGRFTISRDDSKSMVYLQMDSLKTEDTAVYYCVGGGDFWGQGTLVTVSS
VL: DIQMTQSPSSLSASVGDRVTITCRASQEISVYLGWYQQKPGKAPKRLIYGAFKLQSGVPSRFSGSRSGTEFTLTISSLQPEDFATYYCLQYVRYPWTFGGGTKVEIK
notes: human IgG4 kappa (HuG4K)
- EC50 [1]: 1.39 nM
- EC50 [2]: 0.92 nM
- EC50 [3]: 0.795 nM

B2: Tau01 HBKB (antibody, V domains shown)
VH: B1 VH
VL: B1 VL with G34S, Y36F, P44I, K53T, T69S, F71Y
notes: human IgG4 kappa (HuG4K)
- EC50 [4]: 0.78 nM
- EC50 [5]: 0.402 nM
- EC50 [6]: 0.402 nM
- EC50 [7]: 0.402 nM
- EC50 [8]: 0.81 nM
- EC50 [3]: 0.767 nM

B3: Tau01 HBKC (antibody, V domains shown)
VH: B1 VH
VL: B1 VL with G34S, Y36F, F71Y
notes: human IgG4 kappa (HuG4K)
- EC50 [1]: 0.99 nM
- EC50 [8]: 0.84 nM

B4: Tau01 HCKA (antibody, V domains shown)
VH: B1 VH with E1L, V4L, A49G, D64A, V81A
VL: B1 VL
notes: human IgG4 kappa (HuG4K)
- EC50 [1]: 6.45 nM
- EC50 [9]: 0.959 nM
- EC50 [10]: 1.52 nM

B5: Tau01 HCKC (antibody, V domains shown)
VH: B1 VH with E1L, V4L, A49G, D64A, V81A
VL: B1 VL with G34S, Y36F, F71Y
notes: human IgG4 kappa (HuG4K)
- EC50 [1]: 1.34 nM
- EC50 [10]: 1.57 nM

B6: Tau01 HFKB (antibody, V domains shown)
VH: B1 VH with E1L, V4L, A49G, Y61A, D64A, S79N, M80T, V81A
VL: B1 VL with G34S, Y36F, P44I, K53T, T69S, F71Y
notes: human IgG4 kappa (HuG4K)
- EC50 [11]: 2.93 nM

B7: Tau01 HMKE HuG4k (antibody, V domains shown)
VH: B1 VH with E1L, V4L, D64A, V81A
VL: B1 VL with Y36F
notes: human IgG4 kappa (HuG4K); also called KMKE
- Kd [12]: 0.0201 nM
- koff [12]: 0.00283 s⁻¹
- EC50 (read off the curve) [13]: ~0.8 nM
- Kslow [14]: 0.000883
- EC50 [15]: 0.437 nM and 0.532 nM
- binding result [16]: no binding
- koff [17]: 0.000953 s⁻¹
- Kd [18]: 0.02 nM
- koff [18]: 0.00283 s⁻¹
- kon [18]: 1.41e+08 M⁻¹ s⁻¹

B8: Tau01 HMKN HuG4k (antibody, V domains shown)
VH: B1 VH with E1L, V4L, D64A, V81A
VL: B1 VL with K53T, F71Y
notes: human IgG4 kappa (HuG4K)
- Kd [12]: 0.0249 nM
- EC50 (read off the curve) [13]: ~0.5 nM
- Kslow [14]: 0.000823
- EC50 [15]: 0.624 nM
- binding result [16]: no binding
- koff [17]: 0.000878 s⁻¹
- Kd [18]: 0.025 nM
- koff [18]: 0.0015 s⁻¹
- kon [18]: 6.03e+07 M⁻¹ s⁻¹

B9: Tau01 HMKO HuG4k (antibody, V domains shown)
VH: B1 VH with E1L, V4L, D64A, V81A
VL: B1 VL with K53S, F71Y
notes: human IgG4 kappa (HuG4K)
- Kd [12]: 0.0594 nM
- koff [12]: 0.00352 s⁻¹
- EC50 (read off the curve) [13]: ~0.7 nM
- Kslow [14]: 0.000349
- EC50 [15]: 0.583 nM
- binding result [16]: no binding
- koff [17]: 0.000473 s⁻¹
- Kd [18]: 0.059 nM
- koff [18]: 0.00352 s⁻¹
- kon [18]: 5.93e+07 M⁻¹ s⁻¹

B10: Tau01 HMKP HuG4k (antibody, V domains shown)
VH: B1 VH with E1L, V4L, D64A, V81A
VL: B1 VL with Y36F, F71Y
notes: human IgG4 kappa (HuG4K); Lead candidate
- koff [12]: 0.00186 s⁻¹
- kon [12]: 1.43e+08 M⁻¹ s⁻¹
- EC50 (read off the curve) [13]: ~0.6 nM
- Kslow [14]: 0.000777
- EC50 [15]: 0.499 nM
- binding result [16]: no binding
- koff [17]: 0.000811 s⁻¹
- Kd [18]: 0.013 nM
- koff [18]: 0.00186 s⁻¹
- kon [18]: 1.43e+08 M⁻¹ s⁻¹

B11: Tau01 HOKA (antibody, V domains shown)
VH: B1 VH with E1L, D64A, V81A
VL: B1 VL
notes: human IgG4 kappa (HuG4K)
- EC50 [6]: 0.389 nM

B12: Tau01 HOKB (antibody, V domains shown)
VH: B1 VH with E1L, D64A, V81A
VL: B1 VL with G34S, Y36F, P44I, K53T, T69S, F71Y
notes: human IgG4 kappa (HuG4K)
- EC50 [6]: 0.51 nM

B13: Tau01 HOKG (antibody, V domains shown)
VH: B1 VH with E1L, D64A, V81A
VL: B1 VL with K53T
notes: human IgG4 kappa (HuG4K)
- EC50 [6]: 0.604 nM

B14: Tau01 HOKI (antibody, V domains shown)
VH: B1 VH with E1L, D64A, V81A
VL: B1 VL with F71Y
notes: human IgG4 kappa (HuG4K)
- EC50 [6]: 0.482 nM

B15: Tau01 HOKJ (antibody, V domains shown)
VH: B1 VH with E1L, D64A, V81A
VL: B1 VL with K53S
notes: human IgG4 kappa (HuG4K)
- EC50 [6]: 0.556 nM
